Test results: paper PMC12698673 (Communications Biology, 2025)
Ends that are not written are not given here. * marks the point of attachment. MTSL = CC1(C)C=C(CS*)C(C)(C)N1[O]

B1: CBP-KIX MLLmut (I660A and L664A) (domain or fragment)
chain: not shown
B2: CBP-KIX c-Mybmut (Y650A, A654Q, and Y658A) (domain or fragment)
chain: not shown
B3: FOXO4-CR3 (conserved region 3, transactivation domain of FOXO4, aa 469–505) (domain or fragment, UniProt P98177 469-505, looked up)
chain: DLDLDMYMENLECDMDNIISDLMDEGEGLDFNFEPDP

Experiments:
[1] = target: B2; assay: paramagnetic relaxation enhancement
[2] = target: B3; assay: ITC
[3] = target: KIX domain of CBP (CBP-KIX, aa 586–672) (UniProt P45481 586-672); assay: ITC
[4] = target: B1; assay: ITC
[5] = target: B2; assay: ITC
[6] = target: B2; assay: NMR titration

Sequence of KIX domain of CBP (CBP-KIX, aa 586–672) (P45481 586-672): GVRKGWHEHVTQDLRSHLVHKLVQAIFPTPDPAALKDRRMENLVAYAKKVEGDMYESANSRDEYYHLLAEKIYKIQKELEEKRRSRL

Binder: DLDLDMYMENLEC(MTSL)DMDNIISDLMDEGEGLDFNFEPDP (domain or fragment, UniProt P98177 469-505, looked up) [FOXO4-CR3 labelled with MTSL at C481]
- binding result [1]: binds

Binder: B1
- dH [2]: -4.58 kcal/mol

Binder: B2
- dH [2]: -1.43 kcal/mol

Binder: B3
- Kd [3]: 3350 ± 140 nM
- Kd [4]: 2760 nM
- Kd [5]: 1200 nM

Binder: DLDLDMYMENLECDMDNIISDLADEGEGLDFNFEPDP (domain or fragment, UniProt P98177 469-505, looked up) [FOXO4-CR3 M491A]
- binding result [6]: binds
